Laboratory results published in US11932908B2, “Compositions and methods for diagnosis and treatment of epilepsy” (THE REGENTS OF THE UNIVERSITY OF CALIFORNIA, priority 2004, dated 2024).
Entries after “also recorded” stand apart in the source; their conditions may differ. Read-outs that look alike come from different tables or passages of the source.

How the values were obtained:
PQ type VDCC (Cav2.1) = biological target: T1, PQ type VDCC (Cav2.1) (Oryctolagus cuniculus, UniProt P27884); assay: Patch-clamp analyses of HEK cell line with P/Q type VDCCs and wild type EFHC1 or mutant constructs; format: cell-based
T1 construct: expressed in transfected cells; host or cells: HEK cell line

R-type VDCC (Cav2.3) = biological target: T2, R-type VDCC (Cav2.3) (Oryctolagus cuniculus, UniProt Q02343); assay: Patch-clamp analyses of BHK cells stably expressing Cav2.3 transfected with EFHC1 constructs; format: cell-based; details: whole cell patch-clamp, 24-48 hr after transfection
T2 construct: expressed in transfected cells; host or cells: BHK (BII-104-2) cells
Procedure: Electrophysiological analysis. A baby hamster kidney (BHK) cell line BHK (BII-104-2) stably transfected with the ociE (BII), α2/δ and β1a subunits, were cultured in DMEM medium containing 10% fetal bovine serum (FBS), 30 U/mL penicillin and 30 μg/mL streptomycin. To transiently express wild type or mutant EFHC1, BHK (BII-104-2) cells were transfected with the pEGFP-C2 plasmids (Clonetech) containing EGFP fused with cDNA for EFHC1 or its mutants using SuperFect Transfection Reagent (QIAGEN). For control experiments, EGFP was transiently expressed by transfecting BHK (BII-104-2) with the same amount of pEGFP without the EFHC1 inserts. Cells were trypsinized, diluted with the DMEM medium, and plated onto glass coverslips 18 hrs after transfection. Ca^2+ currents were recorded 24-48 hr after transfection from GFP-positive cells. Currents from BHK (BII-104-2) cells were recorded at room temperature (22-25° C.) using patch-clamp techniques of whole cell mode with an EPC-9 amplifier (HEKA, Germany). Patch pipettes were made from borosilicate glass capillaries (1.5 mm outer diameter and 0.87 mm inner diameter; Hilgenberg) by using a model P-97 Flaming-Brown micropipette puller (Sutter Instrument Co., CA). Pipette resistance ranged from 2 to 3 MΩ when filled with the pipette solutions described below. The series resistance was electronically compensated to >70% and both the leakage and the remaining capacitance were subtracted by −P/6 method. Currents were sampled at 100 kHz in activation kinetics, otherwise sampled at 50 kHz and filtered at 10 kHz. Calcium currents were recorded in an external solution that contained (in mM): 3 CaCl2, 148 tetraethylammonium chloride (TEA-C1), 10 glucose, and 10 HEPES, pH adjusted to 7.4 with Tris-OH. The pipette solution contained (in mM): 85 Cs-aspartate, 40 CsCl, 4 MgCl2, 5 EGTA, 2 ATP2Na, 5 HEPES, and 8 creatine-phosphate, pH adjusted to 7.4 with CsOH. To determine voltage-dependence of activation, amplitude of tail currents at −50 mV after 5 ms test pulse (−40 to 90 mV) was normalized to the maximal tail current amplitude. […]

C-terminus of Cav2.1 = assay: Co-immunoprecipitation assay in HEK cells, Cav2.1 C-terminus; format: binding; details: tagged proteins co-expressed in HEK cells
Procedure: (§1) Immunoprecipitation. HEK cells co-transfected with expression constructs were collected 20 hrs post transfection. The cells were washed in PBS, scraped and homogenized in the lysis buffer (10 mM Tris pH 8.0, 150 mM NaCl, 5 mM EDTA) supplemented with protease inhibitors (Complete; Roche). Cellular debris was removed by centrifugation at 12,000×g for 10 min at 4° C. The supernatants were precleared with protein G-Sepharose (Amersham Pharmacia Biotech) for 2 h at 4° C. and then incubated with monoclonal anti-Flag M2-Agarose beads (Sigma) or anti-Myc antibody (Santa Cruz) for 12 hrs at 4° C. Protein G-Sepharose was used for precipitation with anti-Myc antibody. The beads were washed with lysis buffer five times and then eluted either with Flag peptide or SDS sample buffer for immunoblot analyses.
(§2) Western blot analysis. Confluent HEK cells transiently transfected with expression constructs were placed on ice and washed twice with ice-cold PBS. Cells were scraped from the dishes and homogenized in a hypotonic buffer (0.25M sucrose, 10 mM Tris-HCl, 10 mM NaCl, 1 mM EDTA, pH7.5) supplemented with mixture of protease inhibitors (Complete; Roche). The lysate was centrifuged at 3,300 g for 5 min. to remove nuclei and the supernatant was used as total cytosolic protein. […]

C-terminus of Cav2.2 = assay: Co-immunoprecipitation assay in HEK cells, Cav2.2 C-terminus; format: binding; details: tagged proteins co-expressed in HEK cells
Procedure: as §1, §2

[1] = tested on: mouse hippocampal primary culture neurons
Procedure: Mouse hippocampal neurons primary culture. Hippocampal neurons were isolated from embryonic day 16 mice and plated at 1-2×10^5 cells per well in 24 well plate containing glass coverslips coated with poly-1-lysine and grown in serum-free NEUROBASAL™ media supplemented with B27, 0.5 mM L-glutamine (Invitrogen).
Transfection and immunostaining of mouse hippocampal neurons. […] Cultures were fixed with 4% paraformaldehyde in PBS 16 and 48 hours after transfection, permeabilized with 0.3% Triton X-100, blocked in 3% normal goat serum in PBS, and treated with mouse monoclonal anti-MAP-2 antibody (1:500; Sigma) and Alexa fluor 594 goat anti-mouse IgG antibody (1:1000; Molecular Probes).
TUNEL assay. […] Forty-eight hours after transfection, neuronal apoptosis was detected using DeadEndTM Fluorometric TUNEL System (Promega). Nuclei were visualized with Hoescht 33342 (Molecular Probes). These cells were also stained with anti-Myc antibody (1:200; Cell Signaling) and Alexa fluor 594 goat anti-rabbit IgG antibody (1:1000). All experiments were carried out in duplicate wells and at least repeated three times. Neuron cells were observed on a confocal microscope (OLYMPUS FLUOVIEW) following 48 hours post transfection.
Cell death analyses with EFHC1 mutants. […] Surviving cell numbers were scored by counting GFP fluorescent-positive cells that attached to dishes. At each counting, detached cells (dead cells) were carefully removed by changing culture medium. Morphologies of cells (cell shape, length and number of neurites, shrinkage, etc.) were not considered for the counting. Surviving cell numbers were scored at 24, 36, and 48 hours after transfection. Analyses were repeated twice by using two independently prepared expression construct DNAs. In total, neurons in seven wells of 24 well plates were counted for each transfection and time point. Experiments were performed in a blinded fashion.

Bid = assay: Co-expression with DsRed-Bid vector (marker for caspase activation); format: cell-based; details: fetal mouse primary hippocampal neuron
Description: Clarifying the exact stage or stages of apoptosis thru which myoclonin/EFHC1 acts and by what stage JME mutations reverse apoptosis is important for development of a curative treatment. Typically, apoptotic stimuli, through a Bcl-2 family mediated checkpoint, cause redistribution of cytochrome-c from mitochondria to cytosol. Cytosolic cytochrome-c binds to APAF-1 in the presence of dATP or ATP, result in recruitment and activation of caspase 9 and subsequent cleavage of caspase 3. Caspase 3 ultimately produces extensive DNA fragmentation. […] After establishing Bid activation, the next step is to establish that myoclonin acting through Bid, cause mitochondrial cytochrome C release and then caspase 3 activation. After establishing this step, studies will ask whether myoclonin also acts thru the AIF and a caspase 3 independent cell death mechanisms.

C-terminus of Cav2.3 = assay: Co-immunoprecipitation assay in HEK cells, Cav2.3 C-terminus; format: binding; details: tagged proteins co-expressed in HEK cells; listed as WT
Procedure: as §1, §2

T1 sequence (P27884 whole entry): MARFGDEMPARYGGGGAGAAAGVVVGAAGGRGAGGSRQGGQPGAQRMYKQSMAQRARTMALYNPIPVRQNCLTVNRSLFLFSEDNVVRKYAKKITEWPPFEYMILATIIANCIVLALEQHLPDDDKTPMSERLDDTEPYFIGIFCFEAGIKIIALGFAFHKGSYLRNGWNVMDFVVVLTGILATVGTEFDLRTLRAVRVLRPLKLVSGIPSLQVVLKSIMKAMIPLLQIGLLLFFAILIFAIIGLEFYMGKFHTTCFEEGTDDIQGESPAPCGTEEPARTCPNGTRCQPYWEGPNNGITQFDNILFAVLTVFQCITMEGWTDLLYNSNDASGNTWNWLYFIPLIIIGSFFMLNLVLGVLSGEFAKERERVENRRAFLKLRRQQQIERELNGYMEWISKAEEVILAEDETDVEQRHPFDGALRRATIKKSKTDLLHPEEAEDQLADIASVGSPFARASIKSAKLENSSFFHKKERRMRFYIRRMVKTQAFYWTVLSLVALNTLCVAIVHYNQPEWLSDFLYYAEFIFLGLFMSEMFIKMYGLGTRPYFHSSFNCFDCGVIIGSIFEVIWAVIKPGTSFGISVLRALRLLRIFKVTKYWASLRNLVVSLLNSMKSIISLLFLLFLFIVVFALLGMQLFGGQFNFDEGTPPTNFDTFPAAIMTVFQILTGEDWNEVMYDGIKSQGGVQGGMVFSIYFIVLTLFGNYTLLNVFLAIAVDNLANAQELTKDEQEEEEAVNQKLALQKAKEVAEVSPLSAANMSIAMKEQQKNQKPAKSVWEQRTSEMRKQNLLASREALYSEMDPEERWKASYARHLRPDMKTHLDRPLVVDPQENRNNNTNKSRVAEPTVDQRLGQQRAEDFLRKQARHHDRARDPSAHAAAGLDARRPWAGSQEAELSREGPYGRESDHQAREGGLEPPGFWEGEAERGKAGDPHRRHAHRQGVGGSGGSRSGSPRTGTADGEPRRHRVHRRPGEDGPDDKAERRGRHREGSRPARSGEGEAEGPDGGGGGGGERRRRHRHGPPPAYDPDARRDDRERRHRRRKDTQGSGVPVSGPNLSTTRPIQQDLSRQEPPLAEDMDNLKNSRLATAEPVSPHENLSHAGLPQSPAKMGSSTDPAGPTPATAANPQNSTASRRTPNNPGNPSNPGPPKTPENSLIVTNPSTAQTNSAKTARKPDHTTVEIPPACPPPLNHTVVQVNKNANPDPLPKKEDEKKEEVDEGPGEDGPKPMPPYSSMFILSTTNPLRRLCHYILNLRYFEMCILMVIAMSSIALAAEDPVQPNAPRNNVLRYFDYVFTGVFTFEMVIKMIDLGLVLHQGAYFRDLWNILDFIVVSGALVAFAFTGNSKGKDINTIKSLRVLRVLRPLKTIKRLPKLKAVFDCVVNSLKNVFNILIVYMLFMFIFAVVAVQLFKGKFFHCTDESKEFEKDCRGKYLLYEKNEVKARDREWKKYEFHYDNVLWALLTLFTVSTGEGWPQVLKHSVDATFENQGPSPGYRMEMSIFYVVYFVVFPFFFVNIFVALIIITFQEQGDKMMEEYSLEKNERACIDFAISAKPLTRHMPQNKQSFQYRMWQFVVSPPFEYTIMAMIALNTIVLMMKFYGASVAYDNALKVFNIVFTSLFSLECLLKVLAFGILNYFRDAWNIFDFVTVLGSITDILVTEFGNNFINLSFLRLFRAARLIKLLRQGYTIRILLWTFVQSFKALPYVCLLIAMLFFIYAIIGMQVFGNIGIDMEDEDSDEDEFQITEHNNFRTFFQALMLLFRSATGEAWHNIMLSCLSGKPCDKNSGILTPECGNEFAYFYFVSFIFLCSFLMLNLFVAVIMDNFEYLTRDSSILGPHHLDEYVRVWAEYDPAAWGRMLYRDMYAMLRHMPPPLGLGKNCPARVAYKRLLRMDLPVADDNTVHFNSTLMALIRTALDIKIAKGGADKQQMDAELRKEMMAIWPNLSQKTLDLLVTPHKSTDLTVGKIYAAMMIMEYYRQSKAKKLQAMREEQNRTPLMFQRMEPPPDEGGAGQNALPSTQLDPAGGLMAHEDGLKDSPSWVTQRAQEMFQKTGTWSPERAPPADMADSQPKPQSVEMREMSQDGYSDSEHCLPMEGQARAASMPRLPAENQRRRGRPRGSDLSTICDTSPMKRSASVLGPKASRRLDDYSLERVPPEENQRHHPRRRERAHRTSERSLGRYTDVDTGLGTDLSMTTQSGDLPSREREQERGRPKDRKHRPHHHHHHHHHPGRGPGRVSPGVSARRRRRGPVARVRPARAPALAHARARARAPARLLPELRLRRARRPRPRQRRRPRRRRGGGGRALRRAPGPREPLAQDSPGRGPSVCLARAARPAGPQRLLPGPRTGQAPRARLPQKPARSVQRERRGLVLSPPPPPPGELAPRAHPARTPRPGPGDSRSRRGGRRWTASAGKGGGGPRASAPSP
T1 sequence (P13806 27-1106 partner): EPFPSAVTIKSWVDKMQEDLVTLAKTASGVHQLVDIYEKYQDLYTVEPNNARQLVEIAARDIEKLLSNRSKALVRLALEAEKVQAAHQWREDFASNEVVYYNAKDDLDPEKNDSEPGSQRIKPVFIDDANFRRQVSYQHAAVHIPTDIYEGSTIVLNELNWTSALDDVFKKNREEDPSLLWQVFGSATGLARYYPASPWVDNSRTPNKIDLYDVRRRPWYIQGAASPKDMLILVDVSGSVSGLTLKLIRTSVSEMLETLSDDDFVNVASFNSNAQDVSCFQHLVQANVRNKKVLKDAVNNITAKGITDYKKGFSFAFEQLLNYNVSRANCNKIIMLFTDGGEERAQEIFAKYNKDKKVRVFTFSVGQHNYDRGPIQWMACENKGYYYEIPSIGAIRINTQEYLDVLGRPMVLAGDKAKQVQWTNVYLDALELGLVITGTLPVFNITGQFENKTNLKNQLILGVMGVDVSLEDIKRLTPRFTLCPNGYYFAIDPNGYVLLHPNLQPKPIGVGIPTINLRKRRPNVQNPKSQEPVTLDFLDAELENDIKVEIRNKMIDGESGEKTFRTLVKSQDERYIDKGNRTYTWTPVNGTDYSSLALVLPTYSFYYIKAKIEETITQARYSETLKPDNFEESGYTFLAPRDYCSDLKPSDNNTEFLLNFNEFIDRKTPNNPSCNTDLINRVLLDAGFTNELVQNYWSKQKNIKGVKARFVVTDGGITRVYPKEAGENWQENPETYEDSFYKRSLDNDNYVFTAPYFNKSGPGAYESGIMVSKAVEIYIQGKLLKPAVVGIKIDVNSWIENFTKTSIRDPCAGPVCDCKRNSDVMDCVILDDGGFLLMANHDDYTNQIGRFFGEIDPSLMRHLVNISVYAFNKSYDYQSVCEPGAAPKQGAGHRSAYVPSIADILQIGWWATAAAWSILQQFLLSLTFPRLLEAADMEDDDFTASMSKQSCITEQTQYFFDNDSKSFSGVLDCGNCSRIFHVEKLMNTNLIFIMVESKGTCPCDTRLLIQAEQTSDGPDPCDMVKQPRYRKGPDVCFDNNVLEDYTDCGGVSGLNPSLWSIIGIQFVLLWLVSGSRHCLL
T1 sequence (P19517 whole entry partner): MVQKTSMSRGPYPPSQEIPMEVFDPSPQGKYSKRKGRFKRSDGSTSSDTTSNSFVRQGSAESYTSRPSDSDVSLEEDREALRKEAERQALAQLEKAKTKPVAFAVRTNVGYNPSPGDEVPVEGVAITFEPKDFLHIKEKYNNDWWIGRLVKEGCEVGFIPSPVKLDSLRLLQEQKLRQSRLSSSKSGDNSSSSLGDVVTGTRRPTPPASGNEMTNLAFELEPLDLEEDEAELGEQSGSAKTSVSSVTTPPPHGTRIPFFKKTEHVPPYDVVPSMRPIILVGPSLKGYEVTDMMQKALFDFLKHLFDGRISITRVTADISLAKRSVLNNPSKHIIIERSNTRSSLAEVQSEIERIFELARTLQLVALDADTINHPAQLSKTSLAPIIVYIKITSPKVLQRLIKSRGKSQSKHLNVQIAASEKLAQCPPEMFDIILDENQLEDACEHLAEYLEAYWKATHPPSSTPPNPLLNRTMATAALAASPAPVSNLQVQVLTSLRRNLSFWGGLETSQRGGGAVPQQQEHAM

B1: EFHC1: myoclonin 1, a 640 amino acid protein with an EF-hand motif encoded by EFHC1 transcript A (SEQ ID NO: 4) (protein, listed as Homo sapiens)
chain: MVSNPVHGLPFLPGTSFKDSTKTAFHRSQTLSYRNGYAIVRRPTVGIGGDRLQFNQLSQAELDELASKAPVLTYGQPKQAPPADFIPAHVAFDKKVLKFDAYFQEDVPMSTEEQYRIRQVNIYYYLEDDSMSVIEPVVENSGILQGKLIKRQRLAKNDRGDHYHWKDLNRGINITIYGKTFRVVDCDQFTQVFLESQGIELNPPEKMALDPYTELRKQPLRKYVTPSDFDQLKQFLTFDKQVLRFYAIWDDTDSMYGECRTYIIHYYLMDDTVEIREVHERNDGRDPFPLLMNRQRVPKVLVENAKNFPQCVLEISDQEVLEWYTAKDFIVGKSLTILGRTFFIYDCDPFTRRYYKEKFGITDLPRIDVSKREPPPVKQELPPYNGFGLVEDSAQNCFTLIPKAPKKDVIKMLVNDNKVLRYLAVLESPIPEDKDRRFVFSYFLATDMISIFEPPVRNSGIIGGKYLGRTKVVKPYSTVDNPVYYGPSDFFIGAVIEVFGHRFIILDTDEYVLKYMESNAAQYSPEALASIQNHVRKREAPAPEAESKQTEKDPGVQELEALIDTIQKQLKDHSCKDNIREAFQIYDKEASGYVDRDMFFKICESLNVPVDDSLVKELIRMCSHGEGKINYYNFVRAFSN
Ca2+ current density of P/Q-type VDCC (Cav2.1) (PQ type VDCC (Cav2.1); cells co-transfected with P/Q-type VDCC and EFHC1 constructs): did not show such increase; also recorded: did not significantly affect
Activation V0.5 (mV) (PQ type VDCC (Cav2.1); half-maximal voltage of activation, mean ± SEM): 23.9 ± 1.0 mV
Inactivation V0.5 (mV) (PQ type VDCC (Cav2.1); half-maximal voltage of inactivation, mean ± SEM): −8.0 ± 0.8 mV
inactivation speed of P/Q type VDCC (decelerating effect on calcium inactivation) (PQ type VDCC (Cav2.1); patch-clamp): significantly decelerated
voltage dependence of activation (PQ type VDCC (Cav2.1); patch-clamp): did not significantly affect
voltage dependence of inactivation (PQ type VDCC (Cav2.1); patch-clamp): toward positive potentials
Activation k (mV) (PQ type VDCC (Cav2.1); slope factor, mean ± SEM): 8.63 ± 0.35 mV
Inactivation K (mV) (PQ type VDCC (Cav2.1); slope factor, mean ± SEM): 6.73 ± 0.15 mV
R-type Ca2+ current generated by Cav2.3 (R-type VDCC (Cav2.3)): specifically increased; also recorded: significantly increased
R-type Ca2+ current generated by Cav2.3 (R-type VDCC (Cav2.3); listed as WT EFHC1): significantly up-regulates
co-immunoprecipitation with Cav2.1 C-terminus (C-terminus of Cav2.1): did not
co-immunoprecipitation with Cav2.2 C-terminus (C-terminus of Cav2.2): did not
neuronal morphology ([1]; 16 hours post-transfection): shorter neurites and lesser branches; also recorded: shorter neurites and fewer branches
neuronal morphology ([1]; 16 hours post-transfection, listed as GFP-EFHC1): shorter neurites and less branches
apoptosis (TUNEL) on EFHC1 overexpression ([1]; 48 hours after transfection): induced apoptosis; also recorded: overlap with TUNEL positive cells
neuronal morphology ([1]; 48 hours post-transfection): signs of neurodegeneration and cell death; also recorded: neurodegeneratve morphologies
neuronal morphology ([1]; 48 hours post-transfection, listed as GFP-EFHC1): signs of neurodegeneration and cell death
Bid activation (Bid): activated Bid in a number of EFHC1-expressing neurons
co-immunoprecipitation with Cav2.3 C-terminus (C-terminus of Cav2.3): co-immunoprecipitated
